Experimental data published in patent US20110053865A1 (Ablynx, published 2011).
Positions count from the first letter of the chain named. Where “and” joins values, the source holds several entries; their conditions need not be identical. Equal values may be shown once. Read-outs that look alike come from different tables or passages of the source. Values belong to the binder of their own block, whether it stands above or below them.

What was measured:
cynomolgus IL-23 [1] = target: cynomolgus IL-23 (cynomolgus); assay: cell-based or functional assay
[2] = target: T1, recombinant human IL-23 (p19/p40) (human, UniProt Q9NPF7 20-189; P29460 23-328); assay: cell-based or functional assay
T1 sequence (looked up) 1: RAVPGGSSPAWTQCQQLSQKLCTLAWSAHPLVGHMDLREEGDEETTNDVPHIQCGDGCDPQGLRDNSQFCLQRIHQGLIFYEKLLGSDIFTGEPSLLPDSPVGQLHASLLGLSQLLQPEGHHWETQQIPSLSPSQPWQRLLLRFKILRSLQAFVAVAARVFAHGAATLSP
T1 sequence (looked up) 2: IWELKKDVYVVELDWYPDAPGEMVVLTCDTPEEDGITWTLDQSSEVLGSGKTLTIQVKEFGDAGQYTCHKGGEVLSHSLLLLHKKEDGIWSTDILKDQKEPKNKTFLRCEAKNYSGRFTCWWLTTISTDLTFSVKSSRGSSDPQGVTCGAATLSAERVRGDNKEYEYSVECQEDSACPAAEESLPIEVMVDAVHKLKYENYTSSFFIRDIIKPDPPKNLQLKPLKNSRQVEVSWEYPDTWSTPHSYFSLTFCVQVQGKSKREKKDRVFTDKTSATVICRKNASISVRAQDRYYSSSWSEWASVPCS

cynomolgus IL-23 [3] = target: T2, cynomolgus IL-23 (cynomolgus); assay: alpha-screen, cIL-23/IL-23R
T2 construct: also called cyno IL-23; cIL-23

[4] = target: T1, recombinant human IL-23 (p19/p40); assay: inhibition ELISA, hIL-23/hIL-23R-Fc
[5] = target: T1, recombinant human IL-23 (p19/p40); assay: alpha-screen, hIL-23/hIL-23R
[6] = target: T1, recombinant human IL-23 (p19/p40); assay: alpha-screen, hIL-23/IL-23R
[7] = target: T1, recombinant human IL-23 (p19/p40); assay: SPR Biacore 3000, hIL-23 on chip
cynomolgus IL-23 [8] = target: T2, cynomolgus IL-23; assay: cell-based or functional assay; remark: listed apart in the source
[9] = target: T1, recombinant human IL-23 (p19/p40); assay: cell-based or functional assay; remark: listed apart in the source
[10] = target: T1, recombinant human IL-23 (p19/p40); assay: SPR Biacore 3000, hIL-23 on chip, 100 nM only (indicative)
cynomolgus IL-23 [11] = target: T2, cynomolgus IL-23; assay: alpha-screen, cIL-23/hIL-23R
[12] = target: T1, recombinant human IL-23 (p19/p40); assay: SPR Biacore, hIL-23; kd1 125-155 s
[13] = target: T1, recombinant human IL-23 (p19/p40); assay: SPR Biacore, hIL-23; kd2 200-1000 s
cynomolgus IL-23 [14] = target: T2, cynomolgus IL-23; assay: cell-based or functional assay; remark: listed apart in the source
[15] = target: T1, recombinant human IL-23 (p19/p40); assay: cell-based or functional assay; remark: listed apart in the source
cynomolgus IL-23 [16] = target: T2, cynomolgus IL-23; assay: SPR Biacore, cyno IL-23 on chip
cynomolgus IL-23 [17] = target: T2, cynomolgus IL-23; assay: alpha-screen, cyno IL-23/IL-23R-Fc
[18] = target: T1, recombinant human IL-23 (p19/p40); assay: alpha-screen, hIL-23/IL-23R-Fc
[19] = target: T1, recombinant human IL-23 (p19/p40); assay: SPR Biacore, hIL-23 on chip
[20] = target: T1, recombinant human IL-23 (p19/p40); assay: cell-based or functional assay; remark: listed apart in the source
cynomolgus IL-23 [21] = target: T2, cynomolgus IL-23; assay: cell-based or functional assay; remark: listed apart in the source
[22] = target: T1, recombinant human IL-23 (p19/p40); assay: cell-based or functional assay; remark: listed apart in the source
[23] = target: T1, recombinant human IL-23 (p19/p40); assay: SPR Biacore, hIL-23 on chip, several concentrations
[24] = target: T1, recombinant human IL-23 (p19/p40); assay: comp alpha-screen hIL-23
[25] = target: T1, recombinant human IL-23 (p19/p40); assay: 'potency assay', not specified (probably the inhibition ELISA of Example 34)
cynomolgus IL-23 [26] = target: T2, cynomolgus IL-23; assay: cell-based or functional assay; remark: listed apart in the source
[27] = target: T1, recombinant human IL-23 (p19/p40); assay: cell-based or functional assay; remark: listed apart in the source
[28] = target: T1, recombinant human IL-23 (p19/p40); assay: cell-based or functional assay; remark: listed apart in the source
[29] = target: T1, recombinant human IL-23 (p19/p40); assay: inhibition ELISA, hIL-23/hIL-23R-Fc; remark: listed apart in the source
[30] = target: T1, recombinant human IL-23 (p19/p40); assay: cell-based or functional assay; remark: listed apart in the source
[31] = target: T3, native human IL-23 (supernatant of SAC-stimulated THP-1 cells) (human, UniProt Q9NPF7 20-189; P29460 23-328); assay: cell-based or functional assay
T3 sequence (looked up) 1: T1 sequence (looked up) 1
T3 sequence (looked up) 2: T1 sequence (looked up) 2

B1: P23IL119A3 (VHH)
VHH: EVQLVESGGGLVQAGGSLRLSCAASGRIFSLPASGNIFNLLTIAWHRQAPGMQRELVATINSGSRTNYADSVKGRFTISRDNAQKTVYLQMNNLKPEDTAVYYCQTSGSGSPNFWGQGTQVTVSS
notes: p19+ Nanobody
IC50, splenocyte assay cIL-23 (cynomolgus IL-23 [1]): 60.5 nM | IC50, splenocyte assay hIL-23 [2]: 16.8 nM | IC50 (cynomolgus IL-23 [3]): 0.42 nM | IC50 [4]: 1.76 nM | IC50 [5]: 1.21 nM | IC50 [6]: 0.76 nM | koff [7]: 0.0048 s⁻¹ | IC50, mouse splenocyte assay (mIL-22) (cynomolgus IL-23 [8]): 37.4 nM | IC50, mouse splenocyte assay (mIL-22) [9]: 25.5 nM | Kd [10]: 1.4 nM | kon [10]: 3.7e+06 M⁻¹ s⁻¹ | IC50 (cynomolgus IL-23 [11]): 0.5 nM | koff [12]: 0.0041 s⁻¹ | koff [13]: 0.0014 s⁻¹ | IC50, splenocyte assay cIL-23 (cynomolgus IL-23 [14]): 60.5 nM | IC50, splenocyte assay hIL-23 [15]: 16.8 nM

B3: P23IL36A4 (VHH)
VHH: EVQLVESGGGLVQAGGSLRLSCVASERTFSSSAMGWFRQAPGKEREFVAAIGWSGGGFIHYGDSVKGRFTISADNGKNTVYLQMNSLKPEDTAVYYCAADSRLRGIALLKGSYDYRGQGTQVTVSS
notes: p19+ Nanobody; c-myc, His6-tagged; also called P23IL 36A4 (=36G2); 36G2
koff (cynomolgus IL-23 [16]): 0.0012 s⁻¹ | IC50, mouse splenocyte assay (mIL-22) (cynomolgus IL-23 [8]): 11 nM | IC50, mouse splenocyte assay (mIL-22) [9]: 3.12 nM | IC50 (cynomolgus IL-23 [17]): 0.47 nM | IC50 [18]: 1 nM | koff [19]: 0.0009 s⁻¹

B4: P23IL37D5 (VHH)
VHH: EVQLVESGGGLVQPGGSLRLSCAASGFTLDYLAIGWFRQAPGKEREGVSCVSSSGQYTYYADSVKGRFTISRDNAESTVYLQMNSLKPEDTAVYYCATDPECYRVRGYYNGEYDYWGQGTQVTVSS
notes: p19+ Nanobody; c-myc, His6-tagged; also called PIL2337D5
IC50, BAF3 proliferation assay, 76 pM hIL-23 [20]: 13 pM | IC50, splenocyte assay, 3.8 pM cIL-23 (cynomolgus IL-23 [21]): 212 pM | IC50, splenocyte assay, 19 pM hIL-23 [22]: 24 pM | koff (cynomolgus IL-23 [16]): 0.00051 s⁻¹ | Kd [23]: 0.57 nM | koff [23]: 0.00018 s⁻¹ | IC50, mouse splenocyte assay (mIL-22) (cynomolgus IL-23 [8]): 0.288 nM | IC50, mouse splenocyte assay (mIL-22) [9]: 0.017 nM | IC50 (cynomolgus IL-23 [17]): 0.32 nM | IC50 [18]: 0.11 nM | IC50 [24]: 0.176 nM | koff [19]: 0.00019 s⁻¹ | IC50 [25]: 0.0384 nM

B6: 23IL0038 (PEG40 form not stated) (bispecific antibody)
chain: EVQLVESGGGLVQAGGSLRLSCAASGRIFSLPASGNIFNLLTIAWHRQAPGMQRELVATINSGSRTNYADSVKGRFTISRDNAQKTVYLQMNNLKPEDTAVYYCQTSGSGSPNFWGQGTQVTVSSGGGGSGGGGSGGGGSGGGGSGGGGSGGGGSGGGGSEVQLVESGGGLVQPGGSLRLSCIASGLPFSTKSMGWFRQAPGKEREFVARISPGGTSRYYGDFVKGRFAISRDNAKNTTWLQMNSLKAEDTAVYYCASGERSTYIGSNYYRTNEYDYWGTGTQVTVSSGGGC
modifications: PEG40 on the C-terminal Cys of GGGC; branched or linear not stated for this assay
notes: also called P23IL0038; 119A3-81G2-PEG40
IC50 [4]: 0.032 nM

Second part, the binder after the results:

IC50, splenocyte assay cIL-23 (cynomolgus IL-23 [1]): 66.6 nM | IC50, splenocyte assay hIL-23 [2]: 37.3 nM | IC50 [5]: 1.47 nM | IC50 (cynomolgus IL-23 [11]): 0.73 nM | koff [12]: 0.0052 s⁻¹ | koff [13]: 0.002 s⁻¹
B2: P23IL119A3-BASIC (VHH)
VHH: B1 VHH with A14P, H46Y, V87L, K95R, Q120L

IC50, splenocyte assay, 3.8 pM cIL-23 (cynomolgus IL-23 [26]): 6.7 pM | IC50, splenocyte assay, 19 pM hIL-23 [27]: 4.6 pM | IC50, BA/F3 proliferation assay, 76 pM hIL-23 [28]: 125 pM | IC50 [29]: 0.038 nM
B5: P23IL119A3V16-35GS-81G2V11-HSA (bispecific antibody)
chain: EVQLLESGGGLVQPGGSLRLSCAASGRIFSLPASGNIFNLLTIAWYRQAPGKGRELVATINSGSRTYYADSVKGRFTISRDNSKKTLYLQMNSLRPEDTAVYYCQTSGSGSPNFWGQGTLVTVSSGGGGSGGGGSGGGGSGGGGSGGGGSGGGGSGGGGSEVQLLESGGGLVQPGGSLRLSCAASGLPFSTKSMGWFRQAPGKGREFVSRISPGGTSRYYGDFVKGRFTISRDNSKNTLYLQMNSLRAEDTAVYYCASGERSTYIGSNYYRTNEYDYWGQGTLVTVSS
notes: also called P23IL0065; 23IL0065; not shown: full length human serum albumin fused directly to the C-terminus

IC50, splenocyte assay, 19 pM hIL-23 [30]: 14 pM | IC50, splenocyte assay, 3.8 pM cIL-23 (cynomolgus IL-23 [21]): 13 pM | IC50, splenocyte assay, 19 pM hIL-23 [22]: 12 pM | IC50, splenocyte assay, 19 pM native hIL-23 (Expt 1) [31]: 76 pM and 153 pM
B7: P23IL119A3-35GS-81G2 (bispecific antibody)
chain: EVQLVESGGGLVQAGGSLRLSCAASGRIFSLPASGNIFNLLTIAWHRQAPGMQRELVATINSGSRTNYADSVKGRFTISRDNAQKTVYLQMNNLKPEDTAVYYCQTSGSGSPNFWGQGTQVTVSSGGGGSGGGGSGGGGSGGGGSGGGGSGGGGSGGGGSEVQLVESGGGLVQPGGSLRLSCIASGLPFSTKSMGWFRQAPGKEREFVARISPGGTSRYYGDFVKGRFAISRDNAKNTTWLQMNSLKAEDTAVYYCASGERSTYIGSNYYRTNEYDYWGTGTQVTVSS

IC50, splenocyte assay, 3.8 pM cIL-23 (cynomolgus IL-23 [26]): 13.1 pM | IC50, splenocyte assay, 19 pM hIL-23 [27]: 2.7 pM | IC50, BA/F3 proliferation assay, 76 pM hIL-23 [28]: 71 pM | IC50 [29]: 0.025 nM
B8: P23IL119A3V16-35GS-81G2V11-GGGC-PEG40 linear (bispecific antibody)
chain: EVQLLESGGGLVQPGGSLRLSCAASGRIFSLPASGNIFNLLTIAWYRQAPGKGRELVATINSGSRTYYADSVKGRFTISRDNSKKTLYLQMNSLRPEDTAVYYCQTSGSGSPNFWGQGTLVTVSSGGGGSGGGGSGGGGSGGGGSGGGGSGGGGSGGGGSEVQLLESGGGLVQPGGSLRLSCAASGLPFSTKSMGWFRQAPGKGREFVSRISPGGTSRYYGDFVKGRFTISRDNSKNTLYLQMNSLRAEDTAVYYCASGERSTYIGSNYYRTNEYDYWGQGTLVTVSSGGGC
modifications: linear mPEG40 (maleimide) on the C-terminal Cys of GGGC
notes: also called P23IL0063; 23IL0063
